Experiments:
[1] = system: T1, peptide FVHQASFKFGQGD (SEQ ID NO:41)
T1 sequence: XXPPGFVHQASFKFGQGD

[2] = system: T2, FLJ20574 peptide GENVLKKSMKSRVKG (SEQ ID NO:113)
T2 sequence: GENVLKKSMKSRVKG

[3] = system: T3, MARCKS peptide KKRFSFKKSFKLSGFSFKKN (SEQ ID NO:123)
T3 sequence: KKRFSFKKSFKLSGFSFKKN

[4] = system: T4, peptide EYLERRASRRRAV (SEQ ID NO:14)
T4 sequence: XXPPGEYLERRASRRRAV

[5] = system: T5, peptide WKGKRRSKARKKRK (SEQ ID NO:13)
T5 sequence: XXPPGWKGKRRSKARKKRK

[6] = system: T6, phospholemman peptide EEGTFRSSIRRLSTRRR (SEQ ID NO:116)
T6 sequence: EEGTFRSSIRRLSTRRR

[7] = system: T7, NR4A3 peptide KEVVRTDSLKGRRGR (SEQ ID NO:109)
T7 sequence: KEVVRTDSLKGRRGR

[8] = system: T8, ARHGAP6 peptide SAQITIPKDGQKRKKSLRKK (SEQ ID NO:156)
T8 sequence: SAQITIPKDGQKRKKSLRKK

[9] = system: T9, peptide KATTKKRTLRKNDRK (SEQ ID NO:32)
T9 sequence: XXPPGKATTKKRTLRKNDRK

[10] = system: T10, CREB peptide VTDSQKRREILSRRPSYPKI (SEQ ID NO:141)
T10 sequence: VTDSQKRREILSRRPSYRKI

[11] = system: T11, peptide ALRAPKPTLRYFTTERF (SEQ ID NO:64)
T11 sequence: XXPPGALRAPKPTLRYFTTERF

[12] = system: T12, MGC2941 peptide RPTPGDGEKRSRIKKSKKRK (SEQ ID NO:139)
T12 sequence: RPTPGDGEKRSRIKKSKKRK

[13] = system: T13, peptide IDYYKKTTNGRLPVK (SEQ ID NO:73)
T13 sequence: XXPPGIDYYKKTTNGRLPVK

[14] = system: T14, DGKI peptide NRKKKRTSFKRKA (SEQ ID NO:79)
T14 sequence: NRKKKRTSFKRKA

[15] = system: T15, pleckstrin 1 peptide KAIKAIEGGQKFARKSTRRS (SEQ ID NO:126)
T15 sequence: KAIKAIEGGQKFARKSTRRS

[16] = system: T16, GABRB2 peptide QKKSRLRRRASQLKI (SEQ ID NO:84)
T16 sequence: QKKSRLRRRASQLKI

[17] = system: T17, fit1 peptide VQMTWSYPDEKNKRASVRRR (SEQ ID NO:158)
T17 sequence: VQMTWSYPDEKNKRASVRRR

[18] = system: T18, peptide DGQKRKKSLRKKLD (SEQ ID NO:16)
T18 sequence: XXPPGDGQKRKKSLRKKLD

[19] = system: T19, peptide KKRKKKSSKSLAHA (SEQ ID NO:27)
T19 sequence: XXPPGKKRKKKSSKSLAHA

[20] = system: T20, peptide KLAVGRHSFSRRSGV (SEQ ID NO:21)
T20 sequence: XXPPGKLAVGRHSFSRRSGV

[21] = system: T21, titin peptide PFEVVWYKDKRQLRSSKKYK (SEQ ID NO:160)
T21 sequence: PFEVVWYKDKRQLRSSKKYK

[22] = system: T22, cyclophilin G peptide TEEKSKKRKKKHRKNSRKHK (SEQ ID NO:165)
T22 sequence: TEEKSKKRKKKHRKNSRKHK

[23] = system: T23, ribosomal protein S6 peptide AKRRRLSSLRASTSK (SEQ ID NO:120)
T23 sequence: AKRRRLSSLRASTSK

[24] = system: T24, beta adducin peptide KKKFRTPSFLKKSKK (SEQ ID NO:135)
T24 sequence: KKKFRTPSFLKKSKK

[25] = system: T25, dag kinase iota peptide NRKKKRTSFKRKA (SEQ ID NO:117)
T25 sequence: NRKKKRTSFKRKA

[26] = system: T26, PLD1 peptide KYKAFIRIPIPTRRHTFRRQ (SEQ ID NO:161)
T26 sequence: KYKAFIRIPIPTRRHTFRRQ

[27] = system: T27, peptide KKRFSFKKSFKLSGFSFKKN (SEQ ID NO:18)
T27 sequence: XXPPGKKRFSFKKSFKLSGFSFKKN

[28] = system: T28, peptide VDNILKKSNKKLEEL (SEQ ID NO:61)
T28 sequence: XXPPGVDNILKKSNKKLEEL

[29] = system: T29, peptide RKNDRKKRYTVVGNP (SEQ ID NO:29)
T29 sequence: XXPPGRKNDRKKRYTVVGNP

[30] = system: T30, p164-RhoGEF peptide PRLIRRGSKKRPAR (SEQ ID NO:124)
T30 sequence: PRLIRRGSKKRPAR

[31] = system: T31, peptide KEVVRTDSLKGRRGR (SEQ ID NO:30)
T31 sequence: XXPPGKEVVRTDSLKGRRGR

[32] = system: T32, peptide PVNKRSKYTMMK (SEQ ID NO:59)
T32 sequence: XXPPGPVNKRSKYTMMK

[33] = system: T33, MLK3 peptide QQVDRERPHVRRRRGTFKRS (SEQ ID NO:128)
T33 sequence: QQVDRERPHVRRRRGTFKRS

[34] = system: T34, MLK3 peptide HVRRRRGTFKRSKLRARD (SEQ ID NO:76)
T34 sequence: HVRRRRGTFKRSKLRARD

[35] = system: T35, peptide EGGDRRASGRRK (SEQ ID NO:34)
T35 sequence: XXPPGEGGDRRASGRRK

[36] = system: T36, NF1 peptide SQVQKQRSAGSFKRNSIKKI (SEQ ID NO:127)
T36 sequence: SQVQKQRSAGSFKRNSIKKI

[37] = system: T37, peptide AWVTVHEKKSSRKSEYL (SEQ ID NO:43)
T37 sequence: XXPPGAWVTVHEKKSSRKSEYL

[38] = system: T38, MAP3K14 peptide WKGKRRSKARKKRK (SEQ ID NO:100)
T38 sequence: WKGKRRSKARKKRK

[39] = system: T39, M1 muscarinic receptor peptide RWDKRRWRKIPKRPGSVHRT (SEQ ID NO:155)
T39 sequence: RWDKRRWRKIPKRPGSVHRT

[40] = system: T40, peptide RKKRKKKSSKSLAHAGVALA (SEQ ID NO:31)
T40 sequence: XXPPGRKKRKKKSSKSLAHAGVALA

Which results are given for PKC-delta?
in vitro phosphorylation (% of best substrate) [1]: 3; in vitro phosphorylation (% of best substrate) [2]: 4; in vitro phosphorylation, 1 uM peptide (% of best substrate) [3]: 45; in vitro phosphorylation, 10 uM peptide (% of best substrate) [3]: 22; in vitro phosphorylation (% of best substrate) [4]: 20; in vitro phosphorylation (% of best substrate) [5]: 22; in vitro phosphorylation, 1 uM peptide (% of best substrate) [6]: 75; in vitro phosphorylation, 10 uM peptide (% of best substrate) [6]: 41; in vitro phosphorylation (% of best substrate) [7]: 7; in vitro phosphorylation, 1 uM peptide (% of best substrate) [8]: 29; in vitro phosphorylation, 10 uM peptide (% of best substrate) [8]: 31; in vitro phosphorylation (% of best substrate) [9]: > 5; in vitro phosphorylation, 1 uM peptide (% of best substrate) [10]: 43; in vitro phosphorylation, 10 uM peptide (% of best substrate) [10]: 21; in vitro phosphorylation (% of best substrate) [11]: 1; in vitro phosphorylation, 1 uM peptide (% of best substrate) [12]: 31; in vitro phosphorylation, 10 uM peptide (% of best substrate) [12]: 24; in vitro phosphorylation (% of best substrate) [13]: 0; in vitro phosphorylation (% of best substrate) [14]: 66; in vitro phosphorylation, 1 uM peptide (% of best substrate) [15]: 47; in vitro phosphorylation, 10 uM peptide (% of best substrate) [15]: 43; in vitro phosphorylation (% of best substrate) [16]: 34; in vitro phosphorylation, 1 uM peptide (% of best substrate) [17]: 18; in vitro phosphorylation, 10 uM peptide (% of best substrate) [17]: 33; in vitro phosphorylation (% of best substrate) [18]: 17; in vitro phosphorylation (% of best substrate) [19]: 8; in vitro phosphorylation (% of best substrate) [20]: 12; in vitro phosphorylation, 1 uM peptide (% of best substrate) [21]: 25; in vitro phosphorylation, 10 uM peptide (% of best substrate) [21]: 31; in vitro phosphorylation, 1 uM peptide (% of best substrate) [22]: 25; in vitro phosphorylation, 10 uM peptide (% of best substrate) [22]: 19; in vitro phosphorylation, 1 uM peptide (% of best substrate) [23]: 64; in vitro phosphorylation, 10 uM peptide (% of best substrate) [23]: 32; in vitro phosphorylation, 1 uM peptide (% of best substrate) [24]: 40; in vitro phosphorylation, 10 uM peptide (% of best substrate) [24]: 25; in vitro phosphorylation, 1 uM peptide (% of best substrate) [25]: 100; in vitro phosphorylation, 10 uM peptide (% of best substrate) [25]: 79; in vitro phosphorylation, 1 uM peptide (% of best substrate) [26]: 22; in vitro phosphorylation, 10 uM peptide (% of best substrate) [26]: 14; in vitro phosphorylation (% of best substrate) [27]: 16; in vitro phosphorylation (% of best substrate) [28]: 1; in vitro phosphorylation (% of best substrate) [29]: 8; in vitro phosphorylation, 1 uM peptide (% of best substrate) [30]: 69; in vitro phosphorylation, 10 uM peptide (% of best substrate) [30]: 43; in vitro phosphorylation (% of best substrate) [31]: 7; in vitro phosphorylation (% of best substrate) [32]: 1; in vitro phosphorylation, 1 uM peptide (% of best substrate) [33]: 46; in vitro phosphorylation, 10 uM peptide (% of best substrate) [33]: 57; in vitro phosphorylation (% of best substrate) [34]: 100; in vitro phosphorylation (% of best substrate) [35]: 5; in vitro phosphorylation, 1 uM peptide (% of best substrate) [36]: 52; in vitro phosphorylation, 10 uM peptide (% of best substrate) [36]: 33; in vitro phosphorylation (% of best substrate) [37]: 3; in vitro phosphorylation (% of best substrate) [38]: 22; in vitro phosphorylation, 1 uM peptide (% of best substrate) [39]: 30; in vitro phosphorylation, 10 uM peptide (% of best substrate) [39]: 23; in vitro phosphorylation (% of best substrate) [40]: > 5
